Measurements as given in patent publication US20200270586A1 (PROMEGA, published 2020).

Target: T1, LgTrip 3092 (SEQ ID NO: 19)
T1 construct: also called LgTrip 3092 His; ATG 3092
Test: tripartite luminescence complementation (with pep86 as third part)

Binder: GSMLFRVTINS [SmTrip9 pep245]
- binding result: binds
